In US20060035242A1:

B1: peptide reagent of SEQ ID NO:107 (peptide)
peptide: GGGKKRPAPGG
modifications: not checked
B2: peptide reagent of SEQ ID NO:106 (peptide)
peptide: GGGKKAPKPGG
modifications: not checked
B3: peptide reagent of SEQ ID NO:105 (peptide)
peptide: GGGKARPKPGG
modifications: not checked
B4: peptide reagent of SEQ ID NO:56 (peptide)
peptide: GGGAGAAAAGAVVGGLGG
modifications: not checked
B5: peptide reagent of SEQ ID NO:79 (peptide)
peptide: GGGNKPSKPK
modifications: not checked
B6: peptide reagent of SEQ ID NO:80 (peptide)
peptide: GGGKPSKPK
modifications: not checked
B7: peptide reagent of SEQ ID NO:98 (peptide)
peptide: GGGKKRAKAGG
modifications: not checked
B8: peptide reagent of SEQ ID NO:72 (tandem repeat) (peptide)
peptide: GGGKKRPKPGGGKKRPKPGG
modifications: not checked
B9: peptide reagent of SEQ ID NO:73 (peptide)
peptide: GGGGPKRKGPK
modifications: not checked
B10: peptide reagent of SEQ ID NO:65 (peptide)
peptide: KKKAGAAAAGAVVGGLGG
modifications: not checked
B11: peptide reagent of SEQ ID NO:85 (peptide)
peptide: GGGKKKKKKKK
modifications: not checked

molecular target: T1, mouse pathogenic prion protein PrP^Sc (RML, in infected Balb-c mouse brain homogenate) (mouse), P04925; assay: not given
T1 sequence (P04925 23-230 limits assumed): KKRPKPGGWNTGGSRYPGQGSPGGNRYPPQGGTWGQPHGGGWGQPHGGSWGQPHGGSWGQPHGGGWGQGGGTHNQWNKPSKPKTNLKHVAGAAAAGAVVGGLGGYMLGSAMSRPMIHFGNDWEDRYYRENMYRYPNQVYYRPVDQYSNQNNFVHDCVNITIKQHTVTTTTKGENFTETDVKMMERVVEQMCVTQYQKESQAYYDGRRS

Row | Binder | ELISA A405 nm [A405 nm]
1 | B1 | 0.578
2 | B2 | 0.268
3 | B3 | 0.256

molecular target: T1, mouse pathogenic prion protein PrP^Sc …; assay: bead pull-down from PrPSc+ mouse brain homogenate; ELISA

Row | Binder | ELISA A405 nm [A405 nm]
4 | B4 | 0.313
5 | B5 | 0.24
6 | B6 | 0.225
7 | B7 | 1.46
8 | B8 | 0.522
9 | B9 | 1.06
10 | B10 | 0.635
11 | B11 | 0.53
